Series [1] deals with PRC2-5m SUZ12 S583A (HEK293T) (human). Nature of the series: EMSA. The note with it: EMSA: 0.5 nM nucleosome, PRC2-5m 2-fold dilutions from 2 uM, 10 mM Tris 8.0, 50 mM NaCl, 10% glycerol, on ice 30 min; 4% native gel, 1x TGE, SYBR Gold. In general terms: Mobility shift assays separate free from complexed probe on a gel.
Series [2] concerns the target mononucleosome (Xenopus laevis histone octamer on 147-bp 601 DNA) (Xenopus laevis). The series is described as follows: native gel or EMSA; 0.5 nM nucleosomes with PRC2-5m (2-fold serial dilution from 2 μM), 10 mM Tris 8.0, 50 mM NaCl, 10% glycerol, on ice 30 min; 4% native polyacrylamide gel, SYBR Gold.

Experimental findings from article PMC9645763 are described below.

In turn, 601 mononucleosome, 147 bp yielded a binding signal (fold higher Kd than WT) in series [1] of 2.

For the substance “PRC2-5m (EZH2–EED–SUZ12–RBBP4–AEBP2) containing the S583A mutation of SUZ12, expressed in HEK293T cells (from UniProt Q15910 1-746; O75530 1-441; Q15022 1-739; Q09028 1-425; Q6ZN18 1-295) (complex)”, in series [2], the fold reduction of the nucleosome binding affinity against the WT complex worked out at 2 fold.
